Paper PMC5981469

What follows are substances tested against envelope protein domain III from dengue virus serotype 2 (DENV2 DIII) (dengue virus serotype 2) (assay: ITC).

Kd | other | stoichiometry N | Substance
30.7 nM | -2.09 kcal/mol | 0.96 sites | single-chain variable fragment of murine monoclonal antibody 4E11 (scFv4E11), wild type
28.7 nM | -1.78 kcal/mol | 0.99 sites | scFv513 bearing the single mutation GluH55Ala
1.64 nM | -4.28 kcal/mol | 1.01 sites | single-chain variable fragment of humanized monoclonal antibody 513 (scFv513), wild type
12.8 nM | -1.89 kcal/mol | 1.04 sites | scFv4E11 bearing the AlaH55Glu mutation
